Source: article PMC5148612, “Mechanism of cargo-directed Atg8 conjugation during selective autophagy” (eLife, 2016)
Positions count from the first letter of the chain named.

How the values were obtained:
Details in all cases: both partners purified
[1] = biological target: T1, Atg12~Atg5-Atg16 complex (S. cerevisiae, UniProt P38316 1-186; Q12380 1-294; Q03818 1-150, conjugated to Atg5 (Atg12~Atg5 protein conjugate) | conjugated to Atg12); experiment: pull-down; GST-fused bait 5 µM and GST-free prey 5 µM with glutathione Sepharose 4B, 1 hr at 4°C; washed with 25 mM HEPES pH 7.5, 150 mM NaCl, 1 mM DTT and 0.1% TritonX100; Western blot (Figures 1A, 1C, 2A, 2C)
T1 construct: Atg12, S. cerevisiae; Atg5, S. cerevisiae; Atg16, S. cerevisiae; conjugate made by co-expression with Atg7 and Atg10 (SMC131); details in Romanov et al., 2012; also called E3-like complex; source: E. coli Rosetta pLysS; Atg12~Atg5 conjugate mixed 1:1 with purified Atg16, purified by size exclusion chromatography; not shown: GST, N-terminal, cleaved; copies: + +
T1 sequence (looked up) 1: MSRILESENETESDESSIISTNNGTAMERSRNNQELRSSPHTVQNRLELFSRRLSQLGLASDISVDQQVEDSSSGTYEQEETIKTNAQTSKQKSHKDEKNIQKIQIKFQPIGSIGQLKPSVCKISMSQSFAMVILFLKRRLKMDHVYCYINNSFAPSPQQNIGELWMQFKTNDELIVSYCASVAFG
T1 sequence (looked up) 2: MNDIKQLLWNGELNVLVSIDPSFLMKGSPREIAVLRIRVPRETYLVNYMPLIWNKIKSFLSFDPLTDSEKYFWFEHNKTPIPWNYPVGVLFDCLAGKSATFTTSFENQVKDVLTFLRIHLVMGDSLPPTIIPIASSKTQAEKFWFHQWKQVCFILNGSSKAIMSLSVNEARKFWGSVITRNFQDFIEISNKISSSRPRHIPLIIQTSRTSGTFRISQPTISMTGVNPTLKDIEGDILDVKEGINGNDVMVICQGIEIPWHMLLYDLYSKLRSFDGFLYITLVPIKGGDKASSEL
T1 sequence (looked up) 3: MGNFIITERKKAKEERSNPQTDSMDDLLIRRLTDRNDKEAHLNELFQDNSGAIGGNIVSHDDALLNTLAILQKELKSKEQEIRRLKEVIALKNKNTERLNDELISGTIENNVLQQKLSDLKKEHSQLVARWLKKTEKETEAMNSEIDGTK

[2] = biological target: T2, Atg12~Atg5 conjugate (S. cerevisiae, UniProt P38316 1-186; Q12380 1-294, conjugated to Atg5 (Atg12~Atg5 protein conjugate) | conjugated to Atg12); experiment: as above
T2 construct: Atg12, S. cerevisiae; Atg5, S. cerevisiae; the two chains are covalently joined; source: E. coli Rosetta pLysS, co-expression of 6xHis-Atg5, Atg12, Atg7 and Atg10, purified
T2 sequence (looked up) 1: T1 sequence (looked up) 1
T2 sequence (looked up) 2: T1 sequence (looked up) 2

[3] = biological target: T3, Atg12~Atg5-Atg16-mCherry complex (S. cerevisiae, UniProt P38316 1-186; Q12380 1-294; Q03818 1-150, conjugated to Atg5 (Atg12~Atg5 protein conjugate) | conjugated to Atg12); experiment: microscopy-based protein-protein interaction assay on beads; glutathione beads coated with GST baits at 20 µM, Atg12~Atg5-Atg16-mCherry 5 µM, 25 mM HEPES pH 7.5, 150 mM NaCl, 1 mM DTT, imaged at equilibrium by spinning disc microscopy (Figures 1B, 2F, 2G)
T3 construct: Atg12, S. cerevisiae; Atg5, S. cerevisiae; Atg16, S. cerevisiae; also called Cx; source: E. coli Rosetta pLysS; Atg12~Atg5 conjugate mixed 1:1 with purified Atg16-mCherry, purified by size exclusion chromatography; not shown: His6, N-terminal, cleaved; mCherry, C-terminal, kept; copies: + +
T3 sequence (looked up) 1: T1 sequence (looked up) 1
T3 sequence (looked up) 2: T1 sequence (looked up) 2
T3 sequence (looked up) 3: T1 sequence (looked up) 3

[4] = biological target: T4, Atg12~Atg5 (N84E) conjugate (S. cerevisiae, UniProt P38316 1-186; Q12380 1-294, N84E, conjugated to Atg5 | conjugated to Atg12); experiment: SEC; separately purified proteins mixed in a molar ratio 1:1 for 30 min at 4°C or on ice; the resulting complex purified on Superdex S200 16/60
T4 construct: Atg12, S. cerevisiae; Atg5, S. cerevisiae; source: E. coli Rosetta pLysS, purified
T4 sequence (looked up) 1: T1 sequence (looked up) 1
T4 sequence (looked up) 2: T1 sequence (looked up) 2 with N84E

[5] = biological target: T5, Atg12~Atg5 (K57E,N84E) conjugate (S. cerevisiae, UniProt P38316 1-186; Q12380 1-294, K57E | N84E, conjugated to Atg5 | conjugated to Atg12); experiment: as above
T5 construct: Atg12, S. cerevisiae; Atg5, S. cerevisiae; source: E. coli Rosetta pLysS, purified
T5 sequence (looked up) 1: T1 sequence (looked up) 1
T5 sequence (looked up) 2: T1 sequence (looked up) 2 with K57E, N84E

[6] = biological target: T2, Atg12~Atg5 conjugate; experiment: as above
[7] = biological target: T6, Atg12~Atg5 (K57E) conjugate (S. cerevisiae, UniProt P38316 1-186; Q12380 1-294, K57E, conjugated to Atg5 | conjugated to Atg12); experiment: as above
T6 construct: Atg12, S. cerevisiae; Atg5, S. cerevisiae; source: E. coli Rosetta pLysS, purified
T6 sequence (looked up) 1: T1 sequence (looked up) 1
T6 sequence (looked up) 2: T1 sequence (looked up) 2 with K57E

Measured: binding result

B1: GST-Atg19 (natural protein, S. cerevisiae, UniProt P35193 1-415, looked up)
chain: MNNSKTNQQMNTSMGYPLTVYDECNKFQLIVPTLDANIMLWCIGQLSLLNDSNGCKHLFWQPNDKSNVRILLNNYDYGHLFKYLQCQRKCSVYIGEGTLKKYNLTISTSFDNFLDLTPSEEKESLCREDAHEDPVSPKAGSEEEISPNSTSNVVVSRECLDNFMKQLLKLEESLNKLELEQKVTNKEPNHRISGTIDIPEDRSELVNFFTELKTVKQLEDVFQRYHDYERLSQECDSKTEIASDHSKKETKIEVEPPNERSLQITMNQRDNSLYFQLFNNTNSVLAGNCKLKFTDAGDKPTTQIIDMGPHEIGIKEYKEYRYFPYALDLEAGSTIEIENQYGEVIFLGKYGSSPMINLRPPSRLSAESLQASQEPFYSFQIDTLPELDDSSIISTSISLSYDGDDNEKALTWEEL
notes: Atg19, S. cerevisiae cargo receptor; also called full length GST-Atg19; Atg19 full length; source: E. coli Rosetta pLysS, purified; not shown: GST, N-terminal, kept
binds: [1] | [2] | [3]

B2: Atg16-mCherry (natural protein, S. cerevisiae, UniProt Q03818 1-150, looked up)
chain: T1 sequence (looked up) 3
notes: Atg16, S. cerevisiae; also called 6xHis-Atg16-mCherry; source: E. coli Rosetta pLysS, purified (Ni-NTA, TEV, Superdex 200); not shown: His6, N-terminal, cleaved; mCherry, C-terminal, kept
binds: [4] | [5] | [6] | [7]
